The results in this text go back to article PMC5993538, “The plant-specific transcription factors CBP60g and SARD1 are targeted by a Verticillium secretory protein VdSCP41 to modulate immunity”.

The target in this data set is T1, GST-CBP60g (Arabidopsis thaliana, UniProt F4K2R6 1-563).
T1 sequence: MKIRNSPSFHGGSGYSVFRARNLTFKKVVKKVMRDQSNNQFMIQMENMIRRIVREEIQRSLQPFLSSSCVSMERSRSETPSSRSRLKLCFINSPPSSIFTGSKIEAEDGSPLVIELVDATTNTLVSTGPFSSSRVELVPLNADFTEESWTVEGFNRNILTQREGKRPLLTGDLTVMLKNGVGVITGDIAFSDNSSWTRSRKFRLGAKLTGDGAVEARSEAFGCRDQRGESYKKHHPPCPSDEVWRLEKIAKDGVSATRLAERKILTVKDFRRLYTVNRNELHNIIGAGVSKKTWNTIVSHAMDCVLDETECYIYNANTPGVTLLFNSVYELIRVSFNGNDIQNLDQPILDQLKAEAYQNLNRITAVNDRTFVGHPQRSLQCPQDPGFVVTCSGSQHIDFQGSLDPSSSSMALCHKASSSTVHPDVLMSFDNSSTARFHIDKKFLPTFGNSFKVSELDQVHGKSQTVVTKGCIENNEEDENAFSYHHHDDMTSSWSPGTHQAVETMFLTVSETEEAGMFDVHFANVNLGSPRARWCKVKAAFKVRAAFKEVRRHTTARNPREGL
The experiment in a line: EMSA; no effector; signal reduced by 150x unlabeled probe; 10 mM Tris-HCl pH 7.5, 50 mM KCl, 1 mM DTT, 50 ng poly[dI-dC], 20 ul, room temperature 30 min; 2 fmol probe, 4 ug GST-CBP60g; 5% native PAGE. The following applies: protein: recombinant; tags: N-terminal GST (pGEX-6p-1); label: 32P (5' end, T4 PNK); blunt. (In general: A gel shift assay detects complexes by their altered migration in electrophoresis.)

B1: ICS1 promoter 60-bp probe (dsDNA)
DNA 1: TGTGTAATTTGGTGGTTATTTCATAGAAATTTTGGGGAAATTGTTGCACCTCTCCACTCT
DNA 2: AGAGTGGAGAGGTGCAACAATTTCCCCAAAATTTCTATGAAATAACCACCAAATTACACA
Consider B1, for which the binding result is on record as “binds”.
